Measured values published in patent US20230071765A1, “COMPOSITIONS HAVING THIOREDOXIN ACTIVITY AND RELATED METHODS” (ORPRO THERAPEUTICS, INC., priority 2020, published 2023).

Target: human insulin (disulfide-bonded heterodimer) (human) (UniProt P01308)
Test: cell-based or functional assay

Chain of human insulin (disulfide-bonded heterodimer) (human) (P01308 90-110 limits assumed, chain 1 of 2): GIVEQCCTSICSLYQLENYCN
Chain of human insulin (disulfide-bonded heterodimer) (human) (P01308 25-54 limits assumed, chain 2 of 2): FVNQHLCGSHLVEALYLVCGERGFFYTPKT

B1: ORP100S (fully monocysteinic human thioredoxin-1, reduced form) (enzyme)
chain: VKQIESKTAFQEALDAAGDKLVVVDFSATWCGPSKMIKPFFHSLSEKYSNVIFLEVDVDDSQDVASESEVKSMPTFQFFKKGQKVGEFSGANKEKLEATINELV
B1 was tested, and the Relative % insulin reduction (ORP100S Ox 0 : Red 100) (% relative to maximum) was 100, the Relative % insulin reduction (ORP100S mixture Ox 25 : Red 75) (% relative to maximum) was 72 and the Relative % insulin reduction (ORP100S mixture Ox 50 : Red 50) (% relative to maximum) was 51. For the same binder, the Relative % insulin reduction (ORP100S mixture Ox 75 : Red 25) (% relative to maximum) was 36 and the maximum insulin heterodimer reaction with fully reduced material (RP-HPLC insulin reduction assay) was 45%.

B2: oxidized ORP100S treated with iodacetamide (IA) (enzyme)
chain: B1 chain
modifications: Cys32 oxidized / treated with iodoacetamide, as printed: 'oxidized ORP100S treated with iodacetamide (IA)'
B2 was tested, and the Relative % insulin reduction (ORP100S Ox 100 : Red 0) (% relative to maximum) was 8.
